Measurements published in patent US20200223921A1 (TRUEBINDING, published 2020).

B2: mouse TIM-3 Fc protein (R&D systems) (Fc fusion, UniProt Q8VIM0 20-191, looked up)
chain: RSLENAYVFEVGKNAYLPCSYTLSTPGALVPMCWGKGFCPWSQCTNELLRTDERNVTYQKSSRYQLKGDLNKGDVSLIIKNVTLDDHGTYCCRIQFPGLMNDKKLELKLDIKAAKVTPAQTAHGDSTTASPRTLTTERNGSETQTLVTLHNNNGTKISTWADEIKDSGETIR
notes: Bought; also called mTIM-3 Fc; mTIM-3-Fc; not shown: Fc

Legend:
[1] = target: mouse Gal3 (endogenous, on B16F10 tumor cells and RAW264.7 macrophages) (mouse) (UniProt P16110); assay: flow cytometry on B16F10 cells, rat anti mouse Gal3 PE against control rat IgG PE
[2] = target: B2; assay: ELISA: plate coated with mGal3 at 10 ug/ml, mTIM-3 Fc (FIGS. 5A-5C)
Method: In FIG. 5A, different anti Gal3 antibodies, i.e. mGal3 polyclonal antibody (R&D sytems), mAb IMT001, mAb M3/38 (Thermofisher Scientific) (FIG. 5A), were added to well that has been coated with Gal3. The antibodies were incubated for 10 minutes and mouse TIM-3 Fc were then added to the plates and incubated for an additional one-hour incubation. Plates were then washed for three times and followed by incubation with anti human-IgG-HRP (Jackson ImmunoResearch) for 1 h at room temperature. The color was developed with TMB subtract (GeneTex, Irvine, Calif.) after three time washes with TBST and the reaction was terminated with 1N HCl. The optical density (OD) was read at 450 nm. The results were expressed as the average OD of duplicates±SD.
In FIG. 5B, mouse Gal3 protein (BioLegend) in PBS (groups 1 and 2) or PS (Sigma-Aldrich, St. Louis, Mo.) in ethanol (groups 3 and 4) were coated on the plates and incubated at 4° C. overnight. Anti mTIM-3 mouse antibodies, mAb RMT3-23 (Bio X cell), was added to the coated plates for groups 2 and 4 only. Secondary anti human-IgG-HRP antibody and substrates were added as described above to detect the binding of the mTIM-3 to mGal3 or PS. […]

[3] = target: T1, Flag-tagged human Gal3 protein stably expressed on A20 cells (A20 Gal3 cells) (human, UniProt P17931 2-250); assay: flow cytometry: mTIM-3 Fc on live A20 Gal3 cells, anti-hFc APC detection (FIG. 4B, row 2)
T1 construct: Mouse B lymphoma A20 cells transfected with a construct encoding Flag-tagged human Gal3; also called A20 cells overexpressing human Gal3; hGal3; not shown: Flag tag
Method: Flow cytometry analysis was performed to evaluate the binding between TIM-3 and Gal3 using A20 cells. A20 Gal3 cells were incubated with 10% FBS HBSS solution that contains with or without mouse TIM-3 Fc on ice for 20 minutes. There are five experimental groups: in group 1, A20 Gal3 cells were incubated without mTIM-3 Fc protein as control; in group 2, A20 Gal3 cells were incubated with mTIM-3 Fc protein; in groups 3, 4, 5, in addition to mTIM-3 Fc protein, anti-mouse TIM-3 polyclonal antibody (R&D System, Minneapolis, Minn.) (group 3), monoclonal antibody RMT3-23 (Bio X cell, West Lebanon, N.H.) (group 4), monoclonal antibody 215015 (R&D Systems) (group 5), were also added to test if these antibodies could block Gal3 and Tim3 binding. For blocking, cells were incubated with 10% FBS HBSS containing mentioned antibodies, then were added with 10% FBS HBSS containing mTIM-3 Fc for 20 min. Samples were centrifuged and pellet were added 10% FBS HBSS containing APC conjugated anti-hFc antibodies (Jackson ImmunoResearch, West Grove, Pa.) for 20 min. After spinning, live/dead cells were stained with Violet dead cell stain kit (Life Technologies). Stained cells were subjected to flow analysis.

[4] = target: human Gal9 protein (R&D systems) (human) (UniProt O00182); assay: ELISA: plate coated with hGal9, mTIM-3 Fc with or without 25 mM alpha-lactose
Chain of human Gal9 protein (R&D systems) (human) (O00182 other isoform, or with tags, fused parts or gaps limits assumed): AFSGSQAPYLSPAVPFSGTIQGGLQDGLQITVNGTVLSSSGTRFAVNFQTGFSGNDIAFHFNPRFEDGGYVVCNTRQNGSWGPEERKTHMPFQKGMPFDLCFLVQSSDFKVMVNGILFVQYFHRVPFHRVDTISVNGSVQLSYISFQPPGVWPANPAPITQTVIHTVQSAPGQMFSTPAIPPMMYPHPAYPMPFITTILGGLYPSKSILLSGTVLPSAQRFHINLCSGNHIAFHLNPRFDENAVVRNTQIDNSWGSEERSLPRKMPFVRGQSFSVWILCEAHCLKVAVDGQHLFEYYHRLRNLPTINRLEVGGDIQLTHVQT

T1 sequence (P17931 2-250): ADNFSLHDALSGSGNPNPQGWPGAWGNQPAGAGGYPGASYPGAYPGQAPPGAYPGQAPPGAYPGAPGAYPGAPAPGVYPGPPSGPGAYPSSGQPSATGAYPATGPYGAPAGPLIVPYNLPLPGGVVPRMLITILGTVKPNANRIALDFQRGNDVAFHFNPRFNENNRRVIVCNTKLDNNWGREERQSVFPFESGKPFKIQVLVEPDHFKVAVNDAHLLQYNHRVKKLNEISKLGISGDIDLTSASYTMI

In the case of “rat anti mouse Gal3 PE antibody (Thermo Fisher Scientific)”, the fold of MFI over isotype control antibody [1] is reported as 10 fold.

B1: mouse Gal3 protein (BioLegend) (ligand)
chain: ADSFSLNDALAGSGNPNPQGYPGAWGNQPGAGGYPGAAYPGAYPGQAPPGAYPGQAPPGAYPGQAPPSAYPGPTAPGAYPGPTAPGAYPGSTAPGAFPGQPGAPGAYPSAPGGYPAAGPYGVPAGPLTVPYDLPLPGGVMPRMLITIMGTVKPNANRIVLDFRRGNDVAFHFNPRFNENNRRVIVCNTKQDNNWGKEERQSAFPFESGKPFKIQVLVEADHFKVAVNDAHLLQYNHRMKNLREISQLGISGDITLTSANHAMI
notes: Bought recombinant protein coated on ELISA plates; also called mGal3
B1: binds [2].

In the case of B2, the binding result [3] is reported as “binds” and the fold reduction in ELISA signal with 25 mM alpha-lactose against no lactose [4] is reported as greater than 10 fold.
